This is an account of results in FireProtDB (doi:10.1021/bi00181a602).

The conditions of the data set: Mus musculus; pH 3.5; 23 °C; GdnHCl; Fluorescence; citrate-phosphate 100 mM; reversible: yes; whole UniProt chain shown.

Values joined by “and” are separate entries in the source; they are usually repeats but may differ in a detail not shown here. Equal values may be shown once.

B1: Neurotrophin-3 wild type, P20181 (protein)
chain: MSILFYVIFLAYLRGIQGNSMDQRSLPEDSLNSLIIKLIQADILKNKLSKQMVDVKENYQSTLPKAEAPREPEQGEATRSEFQPMIATDTELLRQQRRYNSPRVLLSDSTPLEPPPLYLMEDYVGNPVVANRTSPRRKRYAEHKSHRGEYSVCDSESLWVTDKSSAIDIRGHQVTVLGEIKTGNSPVKQYFYETRCKEARPVKNGCRGIDDKHWNSQCKTSQTYVRALTSENNKLVGWRWIRIDTSCVCALSRKIGRT
For B1, the denaturant m value is 3.4 kcal/mol/M and 4 kcal/mol/M and 5.1 kcal/mol/M; the “denaturant midpoint (higher = more stable)” value was 1.4 M and 2.2 M and 2.1 M; the unfolding free energy is 12.7 kcal/mol and 17 kcal/mol and 19 kcal/mol.
